From patent publication US20250236901A1, “METHOD OF DETECTING A MICROORGANISM HAVING HIPPURICASE ACTIVITY” (BIOSYNTH AG, priority 2022, published 2025)

System: Campylobacter jejuni DSM 4688
Assay: Detection of hippuricase activity with 4-HHA, 4-aminoantipyrine and oxidizing reagent (color / absorbance at 505 nm)
Assay type: cell-based
Conditions: FIG. 7B; varied 0 to 4 U/mL; 10 mM 4-HHA; 0.5 mM 4-AAP, 4.5 U/mL HRP, 10 mM glucose
Description: Campylobacter jejuni DSM 4688 (C. j., catalase positive), Eschericha coli (E. coli, catalase positive) and Campylobacter coli DSM 4689 (C. c., catalase positive), Streptococcus agalactiae ATCC®12386 (S. a., catalase negative) and Streptococcus pyogenes ATCC®19615 (S. p., catalase negative) were cultivated on Columbia Agar with sheep blood (Thermofischer PB5039A) at 37° C. for 48 h, both Campylobacter strains were cultivated under microaerophilic atmosphere (Oxoid, Campylgen CN0025A).
Biomass of colonies were suspended in sterile phosphate buffer (100 mM, pH 7.4) and the optical density OD was determined and set to OD600 of 0.9.
Two hundred μL of cell suspensions were mixed with 25 μL of 4-hydroxyhippuric acid (4-HHA, Bachem, 4005059) stock solution, prepared in 100 mM phosphate buffer pH adjusted to 7.4 in a microtiter plate (SpektraMax M5, Molecular Devices) and incubated for 70 minutes at 37° C. […] The absorbance at 505 nm was recorded with a plate reader at room temperature. […]
Two hundred μL of cell suspensions were mixed with 25 μL of 100 mM 4-hydroxyhippuric acid (4-HHA, Bachem 4005059) prepared in 100 mM phosphate buffer pH adjusted to 7.4) in a microtiter plate and incubated for 1 h at 37° C. […] The absorbance at 505 nm was recorded with a plate reader (SpektraMax M5, Molecular Devices) at room temperature. […]

B1: GOD: glucose oxidase (GOD, Merck G2133), hydrogen peroxide-generating enzyme (protein, UniProt P13006 17-605, looked up)
Glucose oxidase: LPHYIRSNGIEASLLTDPKDVSGRTVDYIIAGGGLTGLTTAARLTENPNISVLVIESGSYESDRGPIIEDLNAYGDIFGSSVDHAYETVELATNNQTALIRSGNGLGGSTLVNGGTWTRPHKAQVDSWETVFGNEGWNWDNVAAYSLQAERARAPNAKQIAAGHYFNASCHGVNGTVHAGPRDTGDDYSPIVKALMSAVEDRGVPTKKDFGCGDPHGVSMFPNTLHEDQVRSDAAREWLLPNYQRPNLQVLTGQYVGKVLLSQNGTTPRAVGVEFGTHKGNTHNVYAKHEVLLAAGSAVSPTILEYSGIGMKSILEPLGIDTVVDLPVGLNLQDQTTATVRSRITSAGAGQGQAAWFATFNETFGDYSEKAHELLNTKLEQWAEEAVARGGFHNTTALLIQYENYRDWIVNHNVAYSELFLDTAGVASFDVWDLLPFTRGYVHILDKDPYLHHFAYDPQYFLNELDLLGQAAATQLARNISNSGAMQTYFAGETIPGDNLAYDADLSAWTEYIPYHFRPNYHGVGTCSMMPKEMGGVVDNAARVYGVQGLRVIDGSIPPTQMSSHVMTVFYAMALKISDAILEDYASMQ
In the case of B1, the “GOD enzyme activity sufficient for the reaction” value is reported as 1 U/mL.
